# Numbering of substitutions follows the chain as printed. Names and notes keep the numbering of the source.
# T1: Cre recombinase monomer with Q311R mutation
# T1 chain: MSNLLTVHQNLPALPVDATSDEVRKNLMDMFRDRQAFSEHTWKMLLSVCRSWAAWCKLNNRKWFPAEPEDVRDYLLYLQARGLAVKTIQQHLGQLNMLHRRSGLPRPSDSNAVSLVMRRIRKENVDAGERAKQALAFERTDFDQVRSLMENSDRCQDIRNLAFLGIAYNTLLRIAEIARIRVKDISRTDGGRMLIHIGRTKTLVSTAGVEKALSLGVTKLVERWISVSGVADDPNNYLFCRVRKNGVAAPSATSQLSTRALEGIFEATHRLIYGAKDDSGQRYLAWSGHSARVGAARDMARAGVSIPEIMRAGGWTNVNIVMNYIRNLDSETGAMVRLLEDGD
# T2: Cre recombinase monomer with R292W mutation
# T2 chain: T1 chain with R292W, R311Q
# T3: Cre recombinase monomer with W315I mutation
# T3 chain: T1 chain with R311Q, W315I
# T4: Cre recombinase monomer with Y324M mutation
# T4 chain: T1 chain with R311Q, Y324M
# T5: Cre recombinase monomer with E176H mutation
# T5 chain: T1 chain with E176H, R311Q
# T6: Cre recombinase monomer with E176I mutation
# T6 chain: T1 chain with E176I, R311Q
# T7: Cre recombinase monomer with E176V mutation
# T7 chain: T1 chain with E176V, R311Q
# T8: Cre recombinase monomer with K201W mutation
# T8 chain: T1 chain with K201W, R311Q
# T9: Cre recombinase monomer with Y324E mutation
# T9 chain: T1 chain with R311Q, Y324E
# T10: Cre recombinase monomer with K201A mutation
# T10 chain: T1 chain with K201A, R311Q
# T11: Cre recombinase monomer with R292A mutation
# T11 chain: T1 chain with R292A, R311Q
# T12: Cre recombinase monomer with R292E mutation
# T12 chain: T1 chain with R292E, R311Q
# T13: Cre recombinase monomer with R292S mutation
# T13 chain: T1 chain with R292S, R311Q
# B1: Cre recombinase monomer with R173N mutation (protein)
# chain: T1 chain with R173N, R311Q
# B2: Cre recombinase monomer with R173T mutation (protein)
# chain: T1 chain with R173T, R311Q
# B3: Cre recombinase monomer with R173S mutation (protein)
# chain: T1 chain with R173S, R311Q
# B4: Cre recombinase monomer with E176H mutation (protein)
# chain: T1 chain with E176H, R311Q
# What was measured:
# [1] = molecular target: T1, Cre recombinase monomer with Q311R …
# [2] = molecular target: T2, Cre recombinase monomer with R292W …
# [3] = molecular target: T3, Cre recombinase monomer with W315I …
# [4] = molecular target: T4, Cre recombinase monomer with Y324M …
# [5] = molecular target: T5, Cre recombinase monomer with E176H …
# [6] = molecular target: T6, Cre recombinase monomer with E176I …
# [7] = molecular target: T7, Cre recombinase monomer with E176V …
# [8] = molecular target: T8, Cre recombinase monomer with K201W …
# [9] = molecular target: T9, Cre recombinase monomer with Y324E …
# [10] = molecular target: T10, Cre recombinase monomer with K201A …
# [11] = molecular target: T11, Cre recombinase monomer with R292A …
# [12] = molecular target: T12, Cre recombinase monomer with R292E …
# [13] = molecular target: T13, Cre recombinase monomer with R292S …
protein,measurement,setting,value
B1,Median dimer activity (recombination on loxP),[1],96%
same,Median dimer activity (recombination on loxP),[2],44%
same,Median dimer activity (recombination on loxP),[3],38%
same,Median dimer activity (recombination on loxP),[4],51%
B2,Median dimer activity (recombination on loxP),[5],56%
same,Median dimer activity (recombination on loxP),[6],72%
same,Median dimer activity (recombination on loxP),[7],65%
same,Median dimer activity (recombination on loxP),[8],91%
same,Median dimer activity (recombination on loxP),[1],92%
B3,Median dimer activity (recombination on loxP),[7],49%
same,Median dimer activity (recombination on loxP),[1],97%
same,Median dimer activity (recombination on loxP),[9],59%
B4,Median dimer activity (recombination on loxP),[10],33%
same,Median dimer activity (recombination on loxP),[1],51%
same,Median dimer activity (recombination on loxP),[11],55%
same,Median dimer activity (recombination on loxP),[12],38%
same,Median dimer activity (recombination on loxP),[13],68%

# Reference: patent US20230183713A1, “SITE-SPECIFIC RECOMBINASES FOR EFFICIENT AND SPECIFIC GENOME EDITING” (TECHNISCHE UNIVERSITÄt DRESDEN, published 2023)
